Results reported in the domain aggregation screens of Martell et al. (2025).

test: soluble fraction after stress (log2 fold change); higher = more stays soluble; pooled small domains, quantitative proteomics; conditions: stress: 50 degC
Summary of the method: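 Custom libraries of small protein domains were pooled and measured in a high-throughput format, with quantitative proteomics as the read-out. Each library was stressed at 50°C. The value is the log2 fold change in the amount of each protein that stays soluble after stress, used as a measure of aggregation propensity; higher values mean more of the protein stays soluble.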

Row | Sequence | soluble fraction (log2)
1 | HMEMTSREIIKRLEEDGWYHVKTTGDHYQMKHPTKPGKVTIVHPAKDLSIGTLRSIEKQSGVRL | -0.0157
2 | HMTGEDIKKVILREYAREKSLLSIFHELSKVNSNVTLEVIKDIITNIDKLPNDLLQYFKEESSFYQKNKN | -0.397
3 | HMKTVPNVEGEKDGTAQSAIESAGLKVGKVTYQYDDNTSKGLVISQSVKGGEKVKPNTAIDLVVSNGPK | 0.0173
4 | HMFTSVDVAPDLRTAKVFYSVLGRKKSDKEINIAINQKRKAFKKFMGPELHLKNIPDLHFYYD | -0.232
5 | HMEHIDVSGRAFDVSVSRLKRARRLTMRIDTHKQLVKISAPLHVESSTIRAFLARNQNWLEQQVEKR | -0.881
6 | HMEVVRVEPGATVRDLGEALGVPPTRIIQILMGLGEMKTVTQTLSTEEIELVAEELGRRVEV | 0.135
7 | HMYYHQIIGLDVVDENGNTLGKIKEILSPGANDVWVVKRKQKNDLLLPVIDDVIKDVDLAAGKVHVELLEG | -0.0975
8 | HMSPGAKIEVTGNTVNLRAGPGTNYDTRGQVKKGEQLPLLGEQGGWYRVQTSRGVAYLAGWLARVLT | 0.0409
9 | HMRQQQISAAIKTSVNGTVDYYVRRLPERDPRGDFLEVWDDLQKVIQAAHGIQVSHDELYEYFRRLK | -0.337
10 | HMRAAKSEDTRTRLIEGGMALFGQKGYNATGIKDITDAAGVPKGSFYNYFASKEDFGAEIIHSY | 0.122
11 | HMKELLQEMIMDILRAIASPNIDIKRKTLDLVLDLITPRNIDNVTGMLKTEVVKSQSENTSDVG | -0.623
12 | HMQKTVLAASVYERMKERIMDQYYPPGERLNIDALAIDLAVSPTPIREALARLAAERLITFEAYKGYRVSP | -1.87
13 | HMSTKRQKELLEYVDRFITEHGYGPSYREIMNAIGYKSVSTVAIHIDGLIAKGYLRKRDNSARSLEVV | -0.716
14 | HMQMLQDPFLNALRKEHVPVSIYLVNGIKLQGQVESFDQYVVLLRNTSVTQMVYKHAISTIVPARAVSL | -0.403
15 | HMADRDKYIIMGQQLLRAAFEHFGKKATDKALENAANKLRISDVPELYARLGSAELQPRDVINVIFPD | -0.0534
16 | HMLNPMILLTKGGENIRLDKFLSSHLSDLSRTQIQKMVKEGLVLVNGEPSKVGLKLDGSETIQYTLPK | -0.00634
17 | HMSVDDYLKFSGSGTYWNTQDRGKTYLVNGQQRPLRDKEYLPDVMHRHVIDFITKHRDRPFYIYYSM | 0.0643
18 | HMVLMPIDALRGSSSSSEMRIAAVKFSPSKGWYFSLQERSDEGSSYYEQKVASDGSVSERVKVR | -0.561
19 | HMVQDDDPNSVAKFIDQVIESNPEQVEQYRSGKEKVFNFFLGQTMRLSKGKANPDLVSELLKEKLS | 0.0395
20 | HMNENYNLSKREKEVLDLLVNGKSYKVIATELAISYETVHSHIKKIYHKLHVSSIGEAVSKTIKQKIL | -1.58
21 | HMTKSTLQRQKIIADLIESGNISSQNQLKGLLKKNSLLITQATLSRDLSELGAIKKRQKDGLLVYVLPK | -0.511
22 | HMTDEEFSRIVKYTAVRYGINLYHKKVMVEGRLSNYLAANGFKSYTEYMDRVEADYTGQEAQNLINILTT | -0.258
23 | HMNMRVLSEQPNKKSYQDGNLRLKVFGASFKKSDILNEALNQARVEETGLQIPKLLEVKQIDGQWTIVTE | -0.0363
24 | HMRHLSVPSQDTQQVLQRLKVELALPEGARVRSDPSDPGRRLIPFTESVPQEMIDQYPVVSINI | 0.0489
25 | HMNIDEIFLTKNEIYFSFEYQKKSQLDRYSKIISLDHRIDKNTAYAYANKKQFLNFINLNIDYKIIDNSF | -2.65
26 | HMSQYVPDPVLNAALVGYLDFRKQAGKPMTDYSIRLLLVDLAKLSGNPQEQAAILDQSTKNNWIGVYALG | -2.87
27 | HMPPTSADGIEKYLASGMIRGVGPVYAKKLVSAFGDKVFDIIEAAPHQLQEVEGIGRVRAASILAAWAEQ | 0.134
28 | HMEGVSSESVKEMLKSIIDGEDPHNPVSDQRITDILNSRGINISRRTVAKYRDELGIASSSRRKRY | 0.0818

Row | Sequence | soluble fraction (log2)
29 | HMGTISKRINPSGTTVYRAVIRIRKNGYPNFTESRTFSKKSMAAEWVKRREAEIELNPDILFG | -2.13
30 | HMSDTFENILQRLIKATGRKNASEMANALGLSPQSVYSAKTKGKIPPAWIFAAAERFNASADWIYFGY | -1.01
31 | HMVREVSYDQFLHFVEAKQVGMVYQDGESLMFTLKEDVEKEWGVTAYKTGLWPDANLTDRLLDAGVVFS | -0.715
32 | HMKSSISKNWNPSKDAIEILTRAGIDQEFLENLIPEFVIYWIERSDVLISYNSKFIEHARLKWAQHTAEIQ | -0.0223
33 | HMQLTQEAIENLFKITTAKKFREELEKLVVTDSEKKAFAYFTVYHPKLKELPFAILKSVENYTGISI | -0.871
34 | HMEDNYYENKINYLFGYLDEADKEISVNSILDFHLAHRTNPEFVFEPKKNTNPLIWKYLSNSNLLY | -0.0177
35 | HMANPFQELTERELDVLRQVAAGKNNREIAEALFIGEKTVKTHISNILSKLHLADRTQAAVYAWQQGMM | -0.0277
36 | HMPAEGWEASGDTWRYRQKDGSYITNAWVQDTDGKWYYFDESSLMVRNQTTSDGYYVGEDGVWTET | -0.395
37 | HMSPREDQQSRKQHILEAAAVLFAERGYYKTTTADVARAVGVTQPYVFHFFKSKEELYLAVL | -0.0115
38 | HMEDETAKVLRLLAENNGYLPYNDKSDPTDIYAFFGMSKKAFKMTTGNLYKQKKIQFTQTGIQLIE | -0.347
39 | HMGLPPIATGVNDNMSFSQAFAAARAEVGAGGAFEWHGRVYGTYYKNEWDGMSAQERHDFEIAAIRGS | -0.166
40 | HMNDAEEKAEAIEGVKNFMANMEKTDIDFKSKESVLLEQVEEIRKNYPVAQWPVIVKQLYNNIGRL | 0.159
41 | HMSNIIGNTAYSAIPDKQYFRLKSETAEKVANYLTENNIPFSGRINGDKTTLTIGQKNVDDYKAAVATVTG | 0.0593
42 | HMKTGNIIAVSLVWKGKYYMIRMFFPSAARPSRADVQTEIEKVYPGSKLSSFSVSDYEPGQPLLQV | -2.31
43 | HMIPNEKEAARWDALTAEHTAKLNALEGDALDKVGSHEDVSIKRAGVGDAAFREKILSRTHPDDLERALST | 0.0829
44 | HMITLKKRRQEAILEIIEKYDLSTQDELLQKLKDSGFDATQATVSRDIKELRLVKTMGANGQYKYAVT | -0.403
45 | HMELMKPPGYWQSLENAIYESKKVIKEHGFDTLPSSNKLRELDYHGLSRAISVHHSGFPNFREIMNQELGI | 0.172
46 | HMDVADITGTRKAAILLLTMDEELSKELLKEFERHEIEAIGKEIANIKYIPENIVKQVHSEFLKNINKS | -0.212
47 | HMVFTEEEMLEKIKEYLSTNSYINRRAMETLFNLRQSTALKWLGHFTEIGVLRKEGERNYPVYFLNN | -0.296
48 | HMDPDDEILINIMTKLLTEKQIIIKNKEIFNFLLKRINRTYEEVYNLINKMDKLSLEKKKQLTIPSIKEL | -1.21
49 | HMNIGVEQIEQMERGALITLWQELIDKPLPRHMSIVFLRQVLAFEVQSKQNGGLPRGFITLLNKQAD | -0.824
50 | HMDWVAYGAELRRRRLLAGWTVAELSRRINLSGMTIHQIEKGRGRLRPSELTLAKLAAALGMPTP | -3.47
51 | HMGTGSSAERITMLNSILERQIQAMEIQGNPDAPIVNIQKIYTTLQRIVETAGLKDVDQFFMNPLQGQKEM | -0.253
52 | HMNSNISYSEFLSQVEKGTINSVEITGNSIKGIYADGGEFITFSPGDPGLIDKLQRSDIEILATPPA | -0.104
53 | HMEQVVFNGTGRRKSSIARVRIMSGKGNITVNGKALDEYFGEETLKVIVRQPLTVTDTLDKYDVIATVK | 0.203
54 | HMEGSVTVMVNGESVTMTGKQNYIFVDVFDWYSFDLSAGKGRAIATLVNGKEAEFSQPLANGDNIELYWKE | -0.118
55 | HMATIIGSIGIVTQKVGLTGVPGRVYVNNESWAAISANGKEIENDTQVIVVKIDGATLIIEKKG | -1.47
